In patent US20070218001A1 (BIOTECH STUDIO, published 2007):
Where “and” joins values, the source holds several entries; their conditions need not be identical. Equal entries are not always repeated. Where no end group is shown, it is not given here. The star is where a group is joined. Biotin = O=C1N[C@H]2[C@H](CS[C@H]2CCCCC(=O)*)N1

How the values were obtained:
biotin-… peptide = assay: phage ELISA, biotinylated peptide on streptavidin-coated wells, anti-M13 HRP and ABTS, 35 min at room temperature
[1] = molecular target: T1, recombinant phage displaying CASK PDZ domain (PDZ domain of human hCASK, hCASK-PDZopt in pCANTAB5E) (human, UniProt O14936 480-577); assay: phage ELISA
T1 construct: also called wildtype hCASK-PDZ
T1 sequence: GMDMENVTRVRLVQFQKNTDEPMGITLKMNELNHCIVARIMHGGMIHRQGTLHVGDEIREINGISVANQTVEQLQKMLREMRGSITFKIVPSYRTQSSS

phage-displayed third PDZ domain of human Dlg1 (in pCANTAB5E)
OD405 (biotin-… peptide): 0.51 OD405 and 0.46 OD405

B1: biotin-QKAPTKEFYA peptide (peptide)
peptide: Biotin-QKAPTKEFYA
notes: also called cognate peptide ligand of hCASK PDZ; C-terminus of syndecan-2
binding result [1]: binds
